# Test results published in article PMC2637360 (Structure (London, England : 1993), 2008).
# B1: N141A HincII (enzyme)
# chain: MSFIKPIYQDINSILIGQKVKRPKSGTLSGHAAGEPFEKLVYKFLKENLSDLTFKQYEYLNDLFMKNPAIIGHEARYKLFNSPTLLFLLSRGKAATENWSIENLFEEKQNDTADILLVKDQFYELLDVKRRNISKSAQAPAIISAYKLAQTCAKMIDNKEFDLFDINYLEVDSELNGEDLVCVSTSFAELFKSEPSELYINWAAAMQIQFHVRDLDQGFNGTREEWAKSYLKHFVTQAEQRAISMIDKFVKPFKKYIL
# Biological target: the molecule itself
# Assay: crystal structure
protein,measurement,value
B1,stoichiometry N,2
